B1: mouse eIF4E1B (63-244) [mouse] / eIF4E-binding motif of human eIF4G (608-647) [human] (parent complex)
chain 1: KLHPLQYRWVLWFFKNDRSRAWQDNLQLVTKFNTVEDFWAVYSHIKLASKLSSGCDYALFKEGILPMWEDNRNKQGGRWLLSIDKQLRHFELDRLWLETLLCLVGNCFEEYSREVCGAVVNIRTKRDKIALWTSEAEDKAGVMQIGQIYKERLGISTKTIIGYQAHADTAAKSNNLANKFVV
chain 2: EKKRYDREFLLGFQFIFASMQKPEGLPHISDVVLDKANKT
B2: mouse eIF4E1B (63-244) [mouse] / eIF4E-binding motif of human eIF4ENIF1 (27-63) [human] (parent complex)
chain 1: B1 chain 1
chain 2: PHRYTKEELLDIKELPHSKQRPSCLSEKYDSDGVWDP
B3: mouse eIF4E1B (63-244) [mouse] / eIF4E-binding motif of human eIF4EBP1 (50-83) [human] (parent complex)
chain 1: B1 chain 1
chain 2: TRIIYDRKFLMECRNSPVTKTPPRDLPTIPGVTS

Variants of: B1
Test: pulldown with E. coli lysates, quantified; n = 3 independent experiments; parent: 0.3; read off a plot

Variant | screen value
chain 1 KLHPLQYRWVLWFFKNDRSRAWQDNLQLVTKFNTVEDFWAVYSHIKLASNLSSGCDYALFKEGILPMWEDNRNKQGGRWLLSIDKQLRHFELDRLWLETLLCLVGNCFEEYSREVCGAVVNIRTKRDKIALWTSEAEDKAGVMQIGQIYKERLGISTKTIIGYQAHADTAAKSNNLANKFVV | ~0.22 rel. to Mm eIF4E
chain 1 KLHPLQYRWVLWFFKNDRSRAWQDNLQLVTKFNTVEDFWAVYSHIELASKLSSGCDYALFKEGILPMWEDNRNKQGGRWLLSIDKQLRHFELDRLWLETLLCLVGNCFEEYSREVCGAVVNIRTKRDKIALWTSEAEDKAGVMQIGQIYKERLGISTKTIIGYQAHADTAAKSNNLANKFVV | ~0.13 rel. to Mm eIF4E
chain 1 KLHPLQYRWVLWFFKNDRSRAWQDNLQLVTKFNTVEDFWAVYSHIKLASNLMSGCDYALFKEGILPMWEDERNKQGGRWLLSIDKQLRRFELDRLWLETLLCLVGNCFEEYSREVCGAVVNIRTKRDKIALWTSEAEDKAGVMQIGQIYKERLGISTKTIIGYQAHADTAAKSNNLANKFVV | ~0.22 rel. to Mm eIF4E

Variants of: B2
Test: pulldown with E. coli lysates, quantified; n = 3 independent experiments; parent: 2.5; read off a plot

Variant | screen value
chain 1 KLHPLQYRWVLWFFKNDRSRAWQDNLQLVTKFNTVEDFWAVYSHIELASKLSSGCDYALFKEGILPMWEDNRNKQGGRWLLSIDKQLRHFELDRLWLETLLCLVGNCFEEYSREVCGAVVNIRTKRDKIALWTSEAEDKAGVMQIGQIYKERLGISTKTIIGYQAHADTAAKSNNLANKFVV | ~1.6 rel. to Mm eIF4E
chain 1 KLHPLQYRWVLWFFKNDRSRAWQDNLQLVTKFNTVEDFWAVYSHIKLASNLSSGCDYALFKEGILPMWEDNRNKQGGRWLLSIDKQLRHFELDRLWLETLLCLVGNCFEEYSREVCGAVVNIRTKRDKIALWTSEAEDKAGVMQIGQIYKERLGISTKTIIGYQAHADTAAKSNNLANKFVV | ~1.6 rel. to Mm eIF4E
chain 1 KLHPLQYRWVLWFFKNDRSRAWQDNLQLVTKFNTVEDFWAVYSHIKLASNLMSGCDYALFKEGILPMWEDERNKQGGRWLLSIDKQLRRFELDRLWLETLLCLVGNCFEEYSREVCGAVVNIRTKRDKIALWTSEAEDKAGVMQIGQIYKERLGISTKTIIGYQAHADTAAKSNNLANKFVV | ~1.4 rel. to Mm eIF4E

Variants of: B3
Test: pulldown with E. coli lysates, quantified; n = 3 independent experiments; parent: 0.9; read off a plot

Variant | screen value
chain 1 KLHPLQYRWVLWFFKNDRSRAWQDNLQLVTKFNTVEDFWAVYSHIELASKLSSGCDYALFKEGILPMWEDNRNKQGGRWLLSIDKQLRHFELDRLWLETLLCLVGNCFEEYSREVCGAVVNIRTKRDKIALWTSEAEDKAGVMQIGQIYKERLGISTKTIIGYQAHADTAAKSNNLANKFVV | ~0.85 rel. to Mm eIF4E
chain 1 KLHPLQYRWVLWFFKNDRSRAWQDNLQLVTKFNTVEDFWAVYSHIKLASNLMSGCDYALFKEGILPMWEDERNKQGGRWLLSIDKQLRRFELDRLWLETLLCLVGNCFEEYSREVCGAVVNIRTKRDKIALWTSEAEDKAGVMQIGQIYKERLGISTKTIIGYQAHADTAAKSNNLANKFVV | ~0.7 rel. to Mm eIF4E
chain 1 KLHPLQYRWVLWFFKNDRSRAWQDNLQLVTKFNTVEDFWAVYSHIKLASNLSSGCDYALFKEGILPMWEDNRNKQGGRWLLSIDKQLRHFELDRLWLETLLCLVGNCFEEYSREVCGAVVNIRTKRDKIALWTSEAEDKAGVMQIGQIYKERLGISTKTIIGYQAHADTAAKSNNLANKFVV | ~0.68 rel. to Mm eIF4E
